From patent publication US20060269550A1 come the findings set out here.

Where no end group is shown, it is not given here. The star is where a group is joined. Octanoyl = CCCCCCCC(=O)*

Experiment [1] addresses anti-hGhrelin Fab 2291. Nature of the experiment: competitive ELISA; competitor at 1 µg/ml preincubated with Fab 2291 0.1 µg/ml, OD of Fab bound to BSA-hGhrelin wells. (In general: In an ELISA, binding on a coated surface is turned into a signal by an enzyme label.)
For experiment [2], the target named is anti-hGhrelin Fab 2291. The experiment in a line: competitive ELISA; competitor at 5 µg/ml preincubated with Fab 2291 0.1 µg/ml, OD of Fab bound to BSA-hGhrelin wells.
Chain of anti-hGhrelin Fab 2291 (VH, as listed by the source, chain 1 of 2): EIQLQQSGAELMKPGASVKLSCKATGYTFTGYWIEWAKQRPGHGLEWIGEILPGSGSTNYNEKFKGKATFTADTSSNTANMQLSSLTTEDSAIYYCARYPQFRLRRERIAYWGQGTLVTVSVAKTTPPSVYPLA
Chain of anti-hGhrelin Fab 2291 (VL, as listed by the source, chain 2 of 2): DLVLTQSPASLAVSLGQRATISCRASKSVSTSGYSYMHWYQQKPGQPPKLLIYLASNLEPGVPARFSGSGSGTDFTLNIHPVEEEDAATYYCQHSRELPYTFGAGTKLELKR
The target in experiment [3] is anti-hGhrelin Fab 2291. The experiment in a line: competitive ELISA; competitor at 0.2 µg/ml preincubated with Fab 2291 0.1 µg/ml, OD of Fab bound to BSA-hGhrelin wells.

B1: hGhrelin-His9-acylated (peptide)
peptide: GSSFLSPEH(Octanoyl)QRVQQRKESKKPPAKLQPR
In the case of B1, the results for the Ave. OD (490 nm) with anti-hGhrelin Fab 2291 [1], in the experiment with anti-hGhrelin Fab 2291 [2] and with anti-hGhrelin Fab 2291 [3] were 0.69 OD (490 nm), 0.702 OD (490 nm) and 0.607 OD (490 nm), respectively.

B2: des-acyl-hGhrelin, full-length, non-acylated human ghrelin (peptide)
peptide: GSSFLSPEHQRVQQRKESKKPPAKLQPR
Take B2: the Ave. OD (490 nm) in the experiment with anti-hGhrelin Fab 2291 [1] was 0.663 OD (490 nm); with anti-hGhrelin Fab 2291 [2], 0.729 OD (490 nm); in the experiment with anti-hGhrelin Fab 2291 [3], 0.633 OD (490 nm).
